Measured values published in paper PMC12102759.

B1: TPTE2 peptide 92-107 (Phosphatidylinositol 3,4,5-trisphosphate 3-phosphatase TPTE2), 16-mer library wild type / TLN1 PTB (TLN1 Phosphotyrosine-binding (PTB) domain, residues 309-401) (parent)
chain 1: LADLIFTDSKLYIPLE
chain 2: GVSFFLVKEKMKGKNKLVPRLLGITKECVMRVDEKTKEVIQEWNLTNIKRWAASPKSFTLDFGDYQDGYYSVQTTEGEQIAQLIAGYIDIILK
B2: PEX5 peptide 108-123 (Peroxisomal targeting signal 1 receptor), 16-mer library wild type / PEX14 Pex14 (PEX14 PEX14, residues 16-84) (parent)
chain 1: GVADLALSENWAQEFL
chain 2: TPGSENVLPREPLIATAVKFLQNSRVRQSPLATRRAFLKKKGLTDEEIDMAFQQSGTAADEPSSLGPAT
B3: PAIP1 peptide 124-139 (Polyadenylate-binding protein-interacting protein 1), 16-mer library wild type / PABPC1 PABC (PABPC1 PABC domain, residues 544-623) (parent)
chain 1: LMSKLSVNAPEFYPSG
chain 2: PLTASMLASAPPQEQKQMLGERLFPLIQAMHPTLAGKITGMLLEIDNSELLHMLESPESLRSKVDEAVAVLQAHQAKEAA
B4: PIP5K1C peptide 640-655 (Phosphatidylinositol 4-phosphate 5-kinase type-1 gamma), 16-mer library wild type / TLN1 PTB (TLN1 Phosphotyrosine-binding (PTB) domain, residues 309-401) (parent)
chain 1: FPTDERSWVYSPLHYS
chain 2: B1 chain 2

Variants of: B1
Assay: proteomic peptide phage display deep mutational scan (ProP-PD DMS): M13 P8 16-mer library selected against immobilised GST-tagged bait for four days (rounds), NGS of the eluted pools per day and pseudo-replica
Settings: with TLN1 PTB (TLN1 Phosphotyrosine-binding (PTB) domain, residues 309-401); bait immobilised on MaxiSorp plates (10 µg), library pre-cleared on GST, 2 h binding at 4 °C, five washes; one round per day, days 1-4; value from days 2 and 3; keep out of graded; scale: average fractional NGS count over selection days 2 and 3

Screen value, by site and new letter:
chain 1 L11: Y 4.09e-05 | F 0.000112 | A 6.5e-05 | S 3.91e-05 | W 0
chain 1 L4: K 6.56e-05 | N 5.11e-05 | R 0
chain 1 L15: E 6.68e-05 | T 3.85e-05
chain 1 D8: K 2.8e-05 | S 4.41e-05 | V 7.58e-05 | M 0 | H 2.4e-05
chain 1 D3: H 0.000117 | A 4.9e-05 | W 0 | F 9.05e-05
chain 1 A2: V 0.000107 | F 2.74e-05
chain 1 E16: R 3.05e-05
chain 1 K10: V 7.83e-05 | W 6.74e-05
chain 1 F6: Y 8.2e-05 | G 0 | P 9.98e-05 | A 0 | M 0 | S 0
chain 1 I13: Y 5.85e-05 | H 7.12e-05 | Q 8.06e-05 | S 9.27e-05 | M 3.76e-05 | W 0.000116 | D 0
chain 1 T7: I 3.48e-05 | F 3.05e-05 | E 8.56e-05 | R 6.19e-05 | A 4.1e-05
chain 1 Y12: Q 0 | L 0
chain 1 S9: K 0
chain 1 P14: Y 7.88e-05 | M 0 | E 0 | R 0 | Q 0 | F 0 | S 2.74e-05

Variants of: B2
Assay: as above
Settings: with PEX14 Pex14 (PEX14 PEX14, residues 16-84); bait immobilised on MaxiSorp plates (10 µg), library pre-cleared on GST, 2 h binding at 4 °C, five washes; one round per day, days 1-4; value from days 2 and 3; scale: average fractional NGS count over selection days 2 and 3

Screen value, by site and new letter:
chain 1 F15: W 0.000382 | H 0.00727 | K 0 | Y 0 | L 0.000134 | I 0
chain 1 L7: H 0 | P 0.000675 | S 0.00013 | K 0.000262 | Q 0 | G 0.000778 | N 0 | V 0.000339
chain 1 W11: F 0 | Y 0.00018
chain 1 V2: W 0 | Y 0.00067 | E 0.000749 | R 0 | T 0 | I 0 | Q 0.000476 | N 0 | K 0
chain 1 E9: I 0 | T 9.07e-05 | F 0.000305 | M 0.000152 | Q 0 | G 0.000125 | V 0.000378 | D 0.000711 | N 0.000239 | Y 9.07e-05 | R 0 | L 0.000321 | S 0
chain 1 Q13: R 0.000241 | G 0.000163 | L 0.000475 | Y 0.00131 | H 0.000362 | F 0 | E 0.000434 | T 0.000462 | W 0.000116 | P 0.000626
chain 1 D4: W 0.000313 | V 0 | Q 0.000734 | P 0 | T 0 | N 0 | S 0.00106
chain 1 L5: F 0 | N 0 | S 0.000191 | G 0 | Y 0.000821 | W 0.000435 | V 0.00065 | D 0.000324
chain 1 E14: G 0.000243 | Q 0.00136 | V 0.000334 | P 0 | D 0.000196 | W 0.00347 | R 0.00542 | T 0.000432 | H 0.000765 | A 0.00268 | L 0.000529 | S 0.00161 | F 0.000333 | I 0.000908 | Y 0.00013 | K 0.00049
chain 1 S8: H 0.0106 | Q 0 | D 0 | W 9.4e-05 | P 9.07e-05 | Y 0.0012 | K 0 | E 0.000967 | I 0.00069 | G 0.000241 | A 0.000717
chain 1 L16: I 0 | F 0 | W 0.00162 | D 0 | R 0.000857 | P 0.000186 | N 0 | K 0.000183 | E 0.00013 | V 0.00389 | H 0.000215 | G 0.00105
chain 1 N10: D 0 | L 0.000191 | S 0.000139 | I 0.000414 | T 0.000176 | W 0.000211 | P 0.00066 | F 0.000356 | K 0.000111 | V 0.000297 | Y 0.00069 | G 0 | M 6.63e-05

Variants of: B3
Assay: as above
Settings: with PABPC1 PABC (PABPC1 PABC domain, residues 544-623); bait immobilised on MaxiSorp plates (10 µg), library pre-cleared on GST, 2 h binding at 4 °C, five washes; one round per day, days 1-4; value from days 2 and 3; keep out of graded; scale: average fractional NGS count over selection days 2 and 3

Screen value: each site, then its substitutions
chain 1 G16: L 0.000165 | P 0.000264
chain 1 N8: Q 0.000156 | K 0 | V 0.000243 | H 0.000197 | I 9.39e-05
chain 1 S6: Q 4.7e-05 | K 0
chain 1 L5: V 0 | F 7.31e-05 | S 0 | I 6.08e-05 | Y 5.13e-05 | E 0.00011
chain 1 A9: L 0 | T 0.000154 | G 0 | V 8.33e-05 | M 0
chain 1 Y13: P 0 | N 3.07e-05 | F 8.82e-05
chain 1 F12: A 0 | D 0
chain 1 E11: H 0.000179 | W 0 | L 0.000185
chain 1 K4: S 0.000112 | W 0.000136 | F 0.000173
chain 1 S15: L 0.000141
chain 1 V7: T 0.000112 | K 0 | M 0 | L 1.45e-05 | I 0.00011
chain 1 M2: H 0.000247 | Y 0 | F 1.57e-05 | R 0.000185 | D 9.64e-06
chain 1 P14: S 0.000163 | N 0 | T 8.32e-05 | F 0.000167 | H 4.17e-05
chain 1 P10: V 0.000185 | W 0
chain 1 S3: Y 0.00023 | R 0 | F 4.71e-05

Variants of: B4
Assay: as above
Settings: with TLN1 PTB (TLN1 Phosphotyrosine-binding (PTB) domain, residues 309-401); bait immobilised on MaxiSorp plates (10 µg), library pre-cleared on GST, 2 h binding at 4 °C, five washes; one round per day, days 1-4; value from days 2 and 3; keep out of graded; scale: average fractional NGS count over selection days 2 and 3

Screen value of substitutions, site by site:
chain 1 S7: G 6.31e-05 | D 8.2e-05 | H 0.00017 | E 6.81e-05
chain 1 H14: I 4.44e-05 | A 0.000225 | S 0.000388 | W 5.14e-05 | K 0.00016 | E 0.000433 | Q 0.000124 | N 3.05e-05 | P 0.000231 | R 0.000159 | L 9.59e-05 | V 0.000348 | T 0.00119 | D 0.000394 | G 0.00022 | M 0.00119 | F 2.74e-05 | Y 0.000112
chain 1 R6: P 0.000213 | Y 0.000115 | L 0.000156 | S 0.00302 | M 0.00014 | N 8.35e-05 | G 5.92e-05 | F 0 | D 0.000455 | H 3.76e-05 | I 0.000686 | T 0.000205 | E 0 | W 0.000249 | K 9.21e-05 | V 0.000984 | A 0.00241 | Q 9.86e-05
chain 1 P2: W 0.000111 | A 4.1e-05 | L 0.000825 | F 2.4e-05 | R 5.46e-05 | Q 7.98e-05 | G 9.49e-05 | V 0.000569 | D 0.000759 | T 0.000173 | E 0.000182 | Y 6.83e-05 | N 0.000183 | S 0.000281 | H 2.4e-05
chain 1 E5: W 0.000904 | T 0.000451 | M 0.000263 | I 0.000716 | S 0.000272 | F 0.000369 | L 0.00192 | Y 0.000182 | V 0.00021 | K 0.000102 | P 0.00165 | G 0.000212 | Q 6.1e-05 | H 0.000485 | N 0.00102 | A 0.000188
chain 1 L13: S 0.000183 | M 0.000592 | A 0.000116 | V 0.00019 | D 0 | Q 5.12e-05 | F 0.00025 | W 0.00176 | Y 0.000435 | N 4.75e-05 | G 0.000132 | I 0.000497
chain 1 D4: I 7.24e-05 | F 0.00015 | H 0.000241 | N 3.05e-05 | W 8.26e-05 | E 2.74e-05 | L 0.000325 | R 0.000156 | A 0.000109 | P 7.86e-05 | T 0.000121 | Q 0.000121 | G 0.000716 | V 5.15e-05 | S 0.000264 | M 2.74e-05
chain 1 P12: W 0.000107 | N 0.000185 | M 7.3e-05 | H 5.79e-05 | E 0.00013 | R 0.000314 | I 0.000302 | V 9.3e-05 | A 0.000632 | Q 0.000705 | T 0.000179 | F 7.27e-05 | G 0.000862 | L 0.000701 | S 0.000121 | K 5.51e-05
